In the experiment the target is T1, His-HA-RORβ (isoform 1) (human, UniProt Q92753-1 1-459).
T1 construct: Retinoic acid receptor-related orphan receptor beta (RORβ), human, isoform 1 (RORβ1); the printed residue numbers (K11 to K459 at the C-terminus of the LBD) fit the 459-residue form; Same plasmid used in TC28a2 (RIME) and HEK293T (co-IP, IP-MS); also called HA-tagged RORβ; RORβ WT; source: TC28a2 or HEK293T, transiently transfected (pCMV6), in lysate
T1 sequence (looked up): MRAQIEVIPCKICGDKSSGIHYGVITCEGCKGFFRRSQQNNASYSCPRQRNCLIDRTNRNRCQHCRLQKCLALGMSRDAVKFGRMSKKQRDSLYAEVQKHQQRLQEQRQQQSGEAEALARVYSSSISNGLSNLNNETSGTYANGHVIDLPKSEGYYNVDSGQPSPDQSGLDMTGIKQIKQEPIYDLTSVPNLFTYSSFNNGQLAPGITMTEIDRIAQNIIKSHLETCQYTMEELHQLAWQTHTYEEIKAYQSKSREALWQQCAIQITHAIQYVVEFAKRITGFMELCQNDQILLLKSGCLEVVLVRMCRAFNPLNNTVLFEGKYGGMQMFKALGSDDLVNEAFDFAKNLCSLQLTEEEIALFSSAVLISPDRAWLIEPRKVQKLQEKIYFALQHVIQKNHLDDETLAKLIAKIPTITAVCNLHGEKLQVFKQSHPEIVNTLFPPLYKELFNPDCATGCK
The experiment in a line: affinity purification with mass spectrometry; RIME: HA-RORβ transfected in TC28a2 chondrocytes, 1% formaldehyde crosslinking in cells, nuclear lysate, anti-HA magnetic beads, HA-peptide-blocked control; also with SIRT1 activator SRT2104 against DMSO. The settings on record: partners not purified.

B1: PIAS1, endogenous in TC28a2 (enzyme, human (endogenous in TC28a2), UniProt O75925 1-651, looked up)
chain: MADSAELKQMVMSLRVSELQVLLGYAGRNKHGRKHELLTKALHLLKAGCSPAVQMKIKELYRRRFPQKIMTPADLSIPNVHSSPMPATLSPSTIPQLTYDGHPASSPLLPVSLLGPKHELELPHLTSALHPVHPDIKLQKLPFYDLLDELIKPTSLASDNSQRFRETCFAFALTPQQVQQISSSMDISGTKCDFTVQVQLRFCLSETSCPQEDHFPPNLCVKVNTKPCSLPGYLPPTKNGVEPKRPSRPINITSLVRLSTTVPNTIVVSWTAEIGRNYSMAVYLVKQLSSTVLLQRLRAKGIRNPDHSRALIKEKLTADPDSEIATTSLRVSLLCPLGKMRLTIPCRALTCSHLQCFDATLYIQMNEKKPTWVCPVCDKKAPYEHLIIDGLFMEILKYCTDCDEIQFKEDGTWAPMRSKKEVQEVSASYNGVDGCLSSTLEHQVASHHQSSNKNKKVEVIDLTIDSSSDEEEEEPSAKRTCPSLSPTSPLNNKGILSLPHQASPVSRTPSLPAVDTSYINTSLIQDYRHPFHMTPMPYDLQGLDFFPFLSGDNQHYNTSLLAAAAAAVSDDQDLLHSSRFFPYTSSQMFLDQLSAGGSTSLPTTNGSSSGSNSSLVSSNSLRESHSHTVTNRSSTDTASIFGIIPDIISLD
notes: E3 SUMO-protein ligase PIAS1, endogenous in TC28a2 human chondrocytes; source: endogenous, TC28a2 nuclear lysate
As for B1, the “log2 fold change of PIAS1 in RORβ immunoprecipitates, SRT2104 against DMSO” value was ~-0.4 log2 fold change (SRT2104/DMSO).

Source of the values: PMC13419597, “An Acetylation-Primed SUMOylation Switch Controls RORβ Stability through a p300-SIRT1 Regulatory Axis” (Research Square, 2024).
